The source of these data is IntAct's records for PubMed 31515488.

B1: ATPase PAAT (Homo sapiens), Q9H8K7 (parent)
chain: METRTEDGGLTRRPTLASSWDVAGGALTHSLLLTRAGLGPGDFDWEELLAPPAPGQDLVILKRNHNNKDENPCFLYLRCGPDGGEEIASIGILSSARNMEVYLGEEYCGTSRGKNVCTVLDDSEHEKIILYKKNLKLESSTHACKIKLLSFGERQCVFISKVVVHMRSVFANSSTSSPALGSRIDLDKVQTIMESMGSKLSPGAQQLMDMVRCQQRNCIPIGEQLQSVLGNSGYKHMIGLQSSSTLGTLNKSSSTPFPFRTGLTSGNVTENLQTYIDKSTQLPGGENSTKLDECKVMPQNHSFLENDLKNAMASFLPKKVSDNSNIPNSELLPFLQNLCSQVNHLHVGNKTECQENITKHGERILGVGMEEQSICSYLEKILSKNMELMEKKLMDYIDQRIHELQEHIDDKIALLLDLLQNPNSPPTGIPLRHYDSGERLSNGER
partner: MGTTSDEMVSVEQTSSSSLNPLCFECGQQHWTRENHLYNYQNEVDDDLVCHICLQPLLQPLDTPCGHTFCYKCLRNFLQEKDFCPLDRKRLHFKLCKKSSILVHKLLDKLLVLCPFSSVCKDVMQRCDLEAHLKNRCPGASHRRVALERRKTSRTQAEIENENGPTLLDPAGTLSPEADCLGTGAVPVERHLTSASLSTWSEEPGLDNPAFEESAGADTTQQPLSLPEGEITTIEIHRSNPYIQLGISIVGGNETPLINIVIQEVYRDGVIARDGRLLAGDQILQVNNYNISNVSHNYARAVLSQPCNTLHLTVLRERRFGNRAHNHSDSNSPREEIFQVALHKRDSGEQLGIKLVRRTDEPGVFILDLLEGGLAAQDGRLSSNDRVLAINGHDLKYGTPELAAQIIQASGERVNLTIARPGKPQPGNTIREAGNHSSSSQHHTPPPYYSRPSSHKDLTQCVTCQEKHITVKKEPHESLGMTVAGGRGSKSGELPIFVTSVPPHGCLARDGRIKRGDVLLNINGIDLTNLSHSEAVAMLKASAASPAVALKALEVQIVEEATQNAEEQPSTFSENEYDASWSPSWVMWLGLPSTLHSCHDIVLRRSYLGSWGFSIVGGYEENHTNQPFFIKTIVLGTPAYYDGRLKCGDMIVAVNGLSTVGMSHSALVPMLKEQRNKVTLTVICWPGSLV
B2: Geminin (Homo sapiens), O75496 (parent)
chain: MNPSMKQKQEEIKENIKNSSVPRRTLKMIQPSASGSLVGRENELSAGLSKRKHRNDHLTSTTSSPGVIVPESSENKNLGGVTQESFDLMIKENPSSQYWKEVAEKRRKALYEALKENEKLHKEIEQKDNEIARLKKENKELAEVAEHVQYMAELIERLNGEPLDNFESLDNQEFDSEEETVEDSLVEDSEIGTCAEGTVSSSTDAKPCI
B3: Prolyl 4-hydroxylase subunit alpha-3 (Homo sapiens), Q7Z4N8 (parent)
chain: MGPGARLAALLAVLALGTGDPERAAARGDTFSALTSVARALAPERRLLGLLRRYLRGEEARLRDLTRFYDKVLSLHEDSTTPVANPLLAFTLIKRLQSDWRNVVHSLEASENIRALKDGYEKVEQDLPAFEDLEGAARALMRLQDVYMLNVKGLARGVFQRVTGSAITDLYSPKRLFSLTGDDCFQVGKVAYDMGDYYHAIPWLEEAVSLFRGSYGEWKTEDEASLEDALDHLAFAYFRAGNVSCALSLSREFLLYSPDNKRMARNVLKYERLLAESPNHVVAEAVIQRPNIPHLQTRDTYEGLCQTLGSQPTLYQIPSLYCSYETNSNAYLLLQPIRKEVIHLEPYIALYHDFVSDSEAQKIRELAEPWLQRSVVASGEKQLQVEYRISKSAWLKDTVDPKLVTLNHRIAALTGLDVRPPYAEYLQVVNYGIGGHYEPHFDHATSPSSPLYRMKSGNRVATFMIYLSSVEAGGATAFIYANLSVPVVRNAALFWWNLHRSGEGDSDTLHAGCPVLVGDKWVANKWIHEYGQEFRRPCSSSPED
partner: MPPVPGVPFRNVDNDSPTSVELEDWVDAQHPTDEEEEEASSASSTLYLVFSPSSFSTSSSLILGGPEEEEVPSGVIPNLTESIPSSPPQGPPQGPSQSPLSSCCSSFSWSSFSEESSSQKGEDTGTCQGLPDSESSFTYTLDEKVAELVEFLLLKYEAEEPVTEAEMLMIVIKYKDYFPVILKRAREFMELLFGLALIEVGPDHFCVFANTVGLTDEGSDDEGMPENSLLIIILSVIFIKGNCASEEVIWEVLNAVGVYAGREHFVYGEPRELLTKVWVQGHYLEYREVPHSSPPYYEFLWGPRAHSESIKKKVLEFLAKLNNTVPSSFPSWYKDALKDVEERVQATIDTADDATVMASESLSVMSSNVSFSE
B4: Myogenin (Homo sapiens), P15173 (parent)
chain: MELYETSPYFYQEPRFYDGENYLPVHLQGFEPPGYERTELTLSPEAPGPLEDKGLGTPEHCPGQCLPWACKVCKRKSVSVDRRRAATLREKRRLKKVNEAFEALKRSTLLNPNQRLPKVEILRSAIQYIERLQALLSSLNQEERDLRYRGGGGPQPGVPSECSSHSASCSPEWGSALEFSANPGDHLLTADPTDAHNLHSLTSIVDSITVEDVSVAFPDETMPN
partner: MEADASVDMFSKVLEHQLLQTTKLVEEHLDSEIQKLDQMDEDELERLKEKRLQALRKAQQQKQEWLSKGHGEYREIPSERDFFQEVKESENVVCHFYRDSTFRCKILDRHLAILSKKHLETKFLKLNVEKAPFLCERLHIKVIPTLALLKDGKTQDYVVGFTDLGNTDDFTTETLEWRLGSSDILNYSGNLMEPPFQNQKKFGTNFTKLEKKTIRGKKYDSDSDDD

The variants in one test derive from B1. The following applies: with lnx2_human LNX2, Q8N448.
For G8R, the “effect of a mutation on the interaction” value is “with no effect”.

Variants of B2 are the subject of a further test. The following applies: with zn439_human ZNF439, Q8NDP4.
zn439_human ZNF439, Q8NDP4, sequence (Q8NDP4 whole entry): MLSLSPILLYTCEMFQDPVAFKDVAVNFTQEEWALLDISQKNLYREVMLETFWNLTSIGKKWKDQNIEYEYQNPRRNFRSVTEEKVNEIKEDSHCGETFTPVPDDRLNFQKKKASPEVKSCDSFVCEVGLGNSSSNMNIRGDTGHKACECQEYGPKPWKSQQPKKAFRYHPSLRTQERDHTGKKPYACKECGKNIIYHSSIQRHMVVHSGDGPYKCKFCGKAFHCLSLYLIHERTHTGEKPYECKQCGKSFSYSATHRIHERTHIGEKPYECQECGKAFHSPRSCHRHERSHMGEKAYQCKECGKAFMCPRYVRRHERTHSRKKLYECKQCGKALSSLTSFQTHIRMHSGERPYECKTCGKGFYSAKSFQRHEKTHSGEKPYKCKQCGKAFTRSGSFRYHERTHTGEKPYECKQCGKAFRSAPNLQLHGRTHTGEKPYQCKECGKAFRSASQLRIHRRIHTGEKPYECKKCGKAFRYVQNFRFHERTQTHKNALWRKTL
On to E167D, for which the “effect of a mutation on the interaction” value was “with no effect”.

For the variant N15H, the “effect of a mutation on the interaction” value is reported as “with no effect”.

In a further test the parent is B3. The following applies: with magc2_human MAGEC2, Q9UBF1.
Consider S378L, for which the “effect of a mutation on the interaction” value is “disrupting interaction strength”.

In the next test the parent is B4. The following applies: with txnd9_human TXNDC9, O14530.
Take A181T: the “effect of a mutation on the interaction” value is on record as “disrupting interaction strength”.
